Where no end group is shown, it is not given here. The star is where a group is joined. FA1 = tetradecanamide (myristoyl) lipid attached through an ethoxy-ethoxy-ethyl acetamide linker, made from Br-FA1, N-(2-(2-(2-(2-bromoacetamido)ethoxy)ethoxy)ethyl)tetradecanamide, CCCCCCCCCCCCCC(=O)NCCOCCOCCNC(=O)C*; FA2 = not defined here; FA3 = not defined here
target: T1, LGR7 (UniProt Q9HBX9 1-757, limits assumed); assay: cell-based or functional assay
T1 sequence (looked up): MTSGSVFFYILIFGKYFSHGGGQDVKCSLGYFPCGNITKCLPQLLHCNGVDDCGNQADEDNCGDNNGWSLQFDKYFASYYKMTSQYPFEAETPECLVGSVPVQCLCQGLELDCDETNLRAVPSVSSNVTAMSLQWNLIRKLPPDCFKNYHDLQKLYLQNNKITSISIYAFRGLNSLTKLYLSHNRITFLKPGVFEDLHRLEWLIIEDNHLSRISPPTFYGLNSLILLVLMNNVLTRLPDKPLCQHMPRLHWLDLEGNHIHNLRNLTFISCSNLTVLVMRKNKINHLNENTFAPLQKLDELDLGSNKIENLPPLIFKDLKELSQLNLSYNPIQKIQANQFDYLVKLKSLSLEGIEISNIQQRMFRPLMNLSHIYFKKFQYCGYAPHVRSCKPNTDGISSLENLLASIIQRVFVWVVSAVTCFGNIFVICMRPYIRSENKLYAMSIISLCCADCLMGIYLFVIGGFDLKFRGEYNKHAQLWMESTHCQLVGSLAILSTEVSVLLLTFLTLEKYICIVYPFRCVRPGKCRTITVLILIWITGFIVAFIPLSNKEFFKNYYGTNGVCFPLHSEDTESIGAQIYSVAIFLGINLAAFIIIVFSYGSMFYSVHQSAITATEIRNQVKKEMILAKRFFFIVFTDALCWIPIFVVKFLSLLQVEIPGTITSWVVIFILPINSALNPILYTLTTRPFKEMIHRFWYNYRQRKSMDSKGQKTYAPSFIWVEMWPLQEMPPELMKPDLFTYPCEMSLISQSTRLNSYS

Binder	Activity
GSGG-Relaxin-single-chain (ligand) GSGGDSWMEEVIKLCGRELVRAQIAICGMSTWSGGGRGGRQLYSALANKCCHVGCTKRSLARFC	1 nM
Tev-Relaxin-single-chain (ligand) HHHHHHHHENLYFQGSGGDSWMEEVIKLCGRELVRAQIAICGMSTWSGGGRGGRQLYSALANKCCHVGCTKRSLARFC	14 nM
Tev-Relaxin-B-S29C-single-chain (ligand) HHHHHHHHENLYFQGSGGDSWMEEVIKLCGRELVRAQIAICGMSTWCGGGRGGRQLYSALANKCCHVGCTKRSLARFC	11 nM
Tev-Relaxin-B-S29C-FA1-single-chain (ligand, lipid FA1 on the Cys at B-chain position 29 (from Br-FA1, Example 5)) HHHHHHHHENLYFQGSGGDSWMEEVIKLCGRELVRAQIAICGMSTWCGGGRGGRQLYSALANKCCHVGCTKRSLARFC	29 nM
Tev-Relaxin (ligand) chain 1: HHHHHHHHENLYFQSGGDSWMEEVIKLCGRELVRAQIAICGMSTWS chain 2: QLYSALANKCCHVGCTKRSLARFC	2 nM
Tev-Relaxin-C chain (ligand) HHHHHHHHENLYFQGSGGDSWMEEVIKLCGRELVRAQIAICGMSTWSKRSLSQEDAPQTPRPVAEIVPSFINKDTETINMMSEFVANLPQELKLTLSEMQPALPQLQQHVPVLKDSSLLFEEFKKLIRNRQSEAADSSPSELKYLGLDTHSRKKRQLYSALANKCCHVGCTKRSLARFC	6 nM
Tev-Relaxin-B-S29C-FA1-C-Chain (ligand, lipid FA1 on the Cys at B-chain position 29 (from Br-FA1, Example 5)) HHHHHHHHENLYFQGSGGDSWMEEVIKLCGRELVRAQIAICGMSTWCKRSLSQEDAPQTPRPVAEIVPSFINKDTETINMMSEFVANLPQELKLTLSEMQPALPQLQQHVPVLKDSSLLFEEFKKLIRNRQSEAADSSPSELKYLGLDTHSRKKRQLYSALANKCCHVGCTKRSLARFC	21 nM

target: T1, LGR7; assay: cell-based or functional assay; remark: another data set of the same source

Binder	Activity, fold drop compared to relaxin
Relaxin-B-D1A, A-A5C-FA3 (ligand, ends and bridges not checked; also: A and B chains disulfide-linked, pairing not given here) chain 1: ASWMEEVIKLCGRELVRAQIAICGMSTWS chain 2: QLYSC(FA3)LANKCCHVGCTKRSLARFC	15 fold
Relaxin-B-D1AM25KM4K, A-Q1AH12K, B-S29C-FA3 (ligand, ends and bridges not checked; also: A and B chains disulfide-linked, pairing not given here) chain 1: ASWKEEVIKLCGRELVRAQIAICGKSTWC(FA3) chain 2: ALYSALANKCCKVGCTKRSLARFC	150 fold
Relaxin-B-D1AM25KM4K, A-Q1AH12K, B-S29C-FA1 (ligand, ends and bridges not checked; also: A and B chains disulfide-linked, pairing not given here) chain 1: ASWKEEVIKLCGRELVRAQIAICGKSTWC(FA1) chain 2: ALYSALANKCCKVGCTKRSLARFC	25 fold
Relaxin-B-D1A, A-Q1C-FA2 (ligand, ends and bridges not checked; also: A and B chains disulfide-linked, pairing not given here) chain 1: ASWMEEVIKLCGRELVRAQIAICGMSTWS chain 2: C(FA2)LYSALANKCCHVGCTKRSLARFC	15 fold
Relaxin-B-D1AM4KS29C-FA2 (ligand, ends and bridges not checked; also: lipid conjugate FA2, site not given here) chain 1: ASWKEEVIKLCGRELVRAQIAICGMSTWC chain 2: QLYSALANKCCHVGCTKRSLARFC	40 fold
Relaxin-A-H12K, B-D1AS29C-FA2 (ligand, ends and bridges not checked; also: A and B chains disulfide-linked, pairing not given here) chain 1: ASWMEEVIKLCGRELVRAQIAICGMSTWC(FA2) chain 2: QLYSALANKCCKVGCTKRSLARFC	16 fold
Relaxin-B-D1A, A-R18C-FA3 (ligand, ends and bridges not checked; also: A and B chains disulfide-linked, pairing not given here) chain 1: ASWMEEVIKLCGRELVRAQIAICGMSTWS chain 2: QLYSALANKCCHVGCTKC(FA3)SLARFC	30 fold
Relaxin-B-D1A, A-R18C-FA2 (ligand, ends and bridges not checked; also: A and B chains disulfide-linked, pairing not given here) chain 1: ASWMEEVIKLCGRELVRAQIAICGMSTWS chain 2: QLYSALANKCCHVGCTKC(FA2)SLARFC	30 fold
Pro-Relaxin-B-D1A (ligand) MIEEGRDSWMEEVIKLCGRELVRAQIAICGMSTWSKRKPTGYGSRKKRQLYSALANKCCHVGCTKRSLARFC	10 fold
Relaxin-B-D1A, A-A5C-FA2 (ligand, ends and bridges not checked; also: A and B chains disulfide-linked, pairing not given here) chain 1: ASWMEEVIKLCGRELVRAQIAICGMSTWS chain 2: QLYSC(FA2)LANKCCHVGCTKRSLARFC	25 fold
Relaxin-B-D1AS29C-XTEN288 (ligand) chain 1: ASWMEEVIKLCGRELVRAQIAICGMSTWC chain 2: QLYSALANKCCHVGCTKRSLARFC chain 3: SAGSPTGPGSEPATSGSETPGTSESATPESGPGSEPATSGSETPGTSESATPESGPGTSTEPSEGSAPGSPAGSPTSTEEGTSESATPESGPGSEPATSGSETPGTSESATPESGPGSPAGSPTSTEEGSPAGSPTSTEEGTSTEPSEGSAPGTSESATPESGPGTSESATPESGPGTSESATPESGPGSEPATSGSETPGSEPATSGSETPGSPAGSPTSTEEGTSTEPSEGSAPGTSTEPSEGSAPGSEPATSGSETPGTSESATPESGPGTSTEPSEGSAPSASR	20 fold
Relaxin-B-D1AM25KS29C-FA2 (ligand, ends and bridges not checked; also: lipid conjugate FA2, site not given here) chain 1: ASWMEEVIKLCGRELVRAQIAICGKSTWC chain 2: QLYSALANKCCHVGCTKRSLARFC	48 fold
Relaxin-B-D1A, A-R18C-FA1 (ligand, ends and bridges not checked; also: A and B chains disulfide-linked, pairing not given here) chain 1: ASWMEEVIKLCGRELVRAQIAICGMSTWS chain 2: QLYSALANKCCHVGCTKC(FA1)SLARFC	15 fold
Relaxin-B-D1A, A-Q1C-FA1 (ligand, ends and bridges not checked; also: A and B chains disulfide-linked, pairing not given here) chain 1: ASWMEEVIKLCGRELVRAQIAICGMSTWS chain 2: C(FA1)LYSALANKCCHVGCTKRSLARFC	10 fold
Relaxin-B-D1A (ligand, ends and bridges not checked; cysteine pairing not given here) chain 1: ASWMEEVIKLCGRELVRAQIAICGMSTWS chain 2: QLYSALANKCCHVGCTKRSLARFC	0 fold
Relaxin-B-D1AM25KM4K, A-Q1AH12K, B-S29C-FA2 (ligand, ends and bridges not checked; also: A and B chains disulfide-linked, pairing not given here) chain 1: ASWKEEVIKLCGRELVRAQIAICGKSTWC(FA2) chain 2: ALYSALANKCCKVGCTKRSLARFC	150 fold
Relaxin-B-D1A, A-Q1C-FA3 (ligand, ends and bridges not checked; also: A and B chains disulfide-linked, pairing not given here) chain 1: ASWMEEVIKLCGRELVRAQIAICGMSTWS chain 2: C(FA3)LYSALANKCCHVGCTKRSLARFC	25 fold

— patent US20160287713A1 (CALIFORNIA INSTITUTE FOR BIOMEDICAL RESEARCH, published 2016)
